Experimental data reported in the supplement of paper PMC9112550, “Optimization of the antimicrobial peptide Bac7 by deep mutational scanning” (BMC Biology, 2022).

Test system: Escherichia coli TOP10
Assay: shrunken log2 fold change of peptide-encoding DNA abundance (4.5 h post-induction vs induction); higher = less antimicrobial activity (less host growth inhibition)
Conditions: time post-induction: 4.5 h; library: site-saturation at positions 5, 18, 19, 20
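Further: peptides expressed intracellularly from a pBAD plasmid library in pooled LB shake-flask culture, induced with 0.3% L-arabinose, DNA abundance read by NGS, three biological replicates, DESeq2 with apeglm shrinkage.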

Sequence | shrunken log2 fold change
RRIRPRPPRLPRPRPRPHFMPRP | -0.231
RRIRTRPPRLPRPRPRPSPFPRP | 0.133
RRIRTRPPRLPRPRPRPFIKPRP | -0.57
RRIRCRPPRLPRPRPRPIRRPRP | 0.119
RRIRLRPPRLPRPRPRPFCKPRP | -0.101
RRIRLRPPRLPRPRPRPEGSPRP | -0.0436
RRIRQRPPRLPRPRPRPPFAPRP | 0.742
RRIRTRPPRLPRPRPRPTDAPRP | 0.471
RRIRNRPPRLPRPRPRPLAPPRP | 0.262
RRIRKRPPRLPRPRPRPEEWPRP | -0.0212
RRIRRRPPRLPRPRPRPCKPPRP | 0.151
RRIRGRPPRLPRPRPRPMCYPRP | 0.243
RRIRWRPPRLPRPRPRPDGRPRP | -0.00151
RRIRFRPPRLPRPRPRPCADPRP | -0.102
RRIRYRPPRLPRPRPRPEICPRP | 0.0682
RRIRQRPPRLPRPRPRPNHLPRP | -1.03
RRIRYRPPRLPRPRPRPNFAPRP | 0.137
RRIRGRPPRLPRPRPRPSMQPRP | 0.599
RRIRTRPPRLPRPRPRPKNFPRP | -0.0884
RRIRQRPPRLPRPRPRPCASPRP | -0.0156

Sequence | shrunken log2 fold change
RRIRRRPPRLPRPRPRPNDAPRP | -0.0546
RRIRPRPPRLPRPRPRPWWRPRP | 0.14
RRIRRRPPRLPRPRPRPMRNPRP | 0.959
RRIRCRPPRLPRPRPRPWMAPRP | -0.333
RRIRERPPRLPRPRPRPMMHPRP | 0.0413
RRIRERPPRLPRPRPRPIVSPRP | 0.0707
RRIRLRPPRLPRPRPRPDATPRP | 0.398
RRIRRRPPRLPRPRPRPDRNPRP | 0.00393
RRIRGRPPRLPRPRPRPIFLPRP | 0.0935
RRIRLRPPRLPRPRPRPDPFPRP | -0.228
RRIRTRPPRLPRPRPRPCPSPRP | -0.0705
RRIRRRPPRLPRPRPRPKARPRP | 0.277
RRIRCRPPRLPRPRPRPISHPRP | -0.486
RRIRHRPPRLPRPRPRPRHRPRP | -0.029
RRIRDRPPRLPRPRPRPQLMPRP | 0.419
RRIRRRPPRLPRPRPRPVSQPRP | 0.264
RRIRVRPPRLPRPRPRPQFQPRP | -0.0795
RRIRDRPPRLPRPRPRPVFFPRP | 0.208
RRIRERPPRLPRPRPRPPGDPRP | 0.619
RRIRNRPPRLPRPRPRPPERPRP | 0.537

Sequence | shrunken log2 fold change
RRIRLRPPRLPRPRPRPHWLPRP | -0.0104
RRIRLRPPRLPRPRPRPPRPPRP | 0.782
RRIRMRPPRLPRPRPRPIKLPRP | 0.0649
RRIRERPPRLPRPRPRPGITPRP | -0.648
RRIRHRPPRLPRPRPRPCFRPRP | -0.346
RRIRFRPPRLPRPRPRPTWAPRP | 0.0327
RRIRRRPPRLPRPRPRPSIRPRP | -0.219
RRIRQRPPRLPRPRPRPLTMPRP | 0.00947
RRIRFRPPRLPRPRPRPEEHPRP | -0.0677
RRIRMRPPRLPRPRPRPTDGPRP | -0.0062
RRIRTRPPRLPRPRPRPGINPRP | -0.324
RRIRVRPPRLPRPRPRPDALPRP | -0.0285
RRIRSRPPRLPRPRPRPNYHPRP | -0.742
RRIRVRPPRLPRPRPRPEPTPRP | 0.0442
RRIRRRPPRLPRPRPRPNVDPRP | -0.125
RRIRNRPPRLPRPRPRPLCDPRP | 0.0696
RRIRARPPRLPRPRPRPNGAPRP | 0.0281
RRIRMRPPRLPRPRPRPKSYPRP | 0.0526
RRIRCRPPRLPRPRPRPYAGPRP | -0.513
RRIRSRPPRLPRPRPRPTHEPRP | -0.0435
